Source: the supplement of paper PMC9170038

Tested on: MS2 coat protein
Experiment: apparent KD of MS2 coat protein; designed switch direction (-1 OFF switch, 1 ON switch): -1; higher = weaker reporter binding
Method in brief: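 Each step of the titration lasted 0.8–1.5 h at the lowest concentration and 10–20 min at the highest. The protein, SNAP-549-labelled MS2 coat protein, went from 0.7 or 1.5 nM doubling to 3 µM over RNA switches transcribed on Illumina chips by stalled E. coli RNA polymerase. Normalised cluster fluorescence was curve-fitted, and the per-design median over clusters is given as apparent KD.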

[1] = Eterna round: R95, input ligand: microRNA oligo, concentration not stated
[2] = Eterna round: R95, input ligand: FMN 200 uM
[3] = Eterna round: R95, input ligand: none
[4] = input ligand: microRNA oligo, concentration not stated

| Sequence | apparent KD of MS2 coat protein (input ligand: FMN 200 uM) [nM] | apparent KD of MS2 coat protein (input ligand: none) [nM] | apparent KD of MS2 coat protein [1] [nM] | apparent KD of MS2 coat protein [2] [nM] | apparent KD of MS2 coat protein [3] [nM] | apparent KD of MS2 coat protein [4] [nM] |
| --- | --- | --- | --- | --- | --- | --- |
| CAGUACUGAGGAUAUACAUGAGGAUCACCCAUGUAAUAAUCGUAGGAAACUACGAUAUGUAGAAGGCAGUACUG [Eli x3 4.04] (Eterna round: R97, puzzle: Exclusion 3) | 16 | 13.1 | – | – | – | – |
| GAGUGCUGAGGAUAUACAUGAGGAUCACCCAUGUGCUUCAGCUAGGAGACUAGCAUUGGUAGAAGGUAGUACUC [LRO-Excl3-02] (puzzle: Exclusion 3) | – | – | 10.6 | – | – | – |
| AAAGAAGAGAGAAAAUAACACAUGAGGAUCACCCAUGUGAGAUGUUGAGGGUGAUACAGGCUUUUUGCUCGUCUUAU (puzzle: Sensor v3, turn-off variant 1) | – | – | 283 | 231 | 321 | – |
| GAGAACGUAGGAUAUACAUGAGGAUCACCCAUGUGAGGAAGGAGUAGGAAGCGUGGAAGUAGAAGGACGGAGAG [JR_Exclu3_Sub073] (puzzle: Exclusion 3) | – | – | 40.6 | 57.6 | 24.5 | – |
| ACAUGAGGAUCACCCAUGUUUGUUGGGUACUCUUUUUACAGCAAGGAUAUGCAUGUUUUUUUUACGCAGAAGGUGCUGGACGUC [JR_ExcNG3_Sub068] (Eterna round: R96, puzzle: Exclusion NG 3) | 381 | 653 | – | – | – | 163 |
| CCAGGCAGUGUGAGGAUAUGCUGGUCCUUGGAUCAGCAGAAGGCACAUGAGGAUCACCCAUGUGAAGAGCUUGG [JL bmx4 3.24] (puzzle: Brourd's mod of Exclusion 4) | – | – | 24.1 | – | – | – |
| UGUCAGUCAGGAUAUGCAUACGUAGACAUGAGGAUCACCCAUGUGACGUGGGCCUGGUGUGUAGAAGGGACGAACA [EX5 #80] (Eterna round: R97, puzzle: Exclusion 5) | 48.5 | 19.5 | – | – | – | – |
| GGAAGGAGUGUAAGGAUAUCCUCCUCGAAAGAGGAGGAGAAGGUACAUGAGGAUCACCCAUGUAGAGGAGGAGG [AK-MS2ROC-r4-Bmoexclusion4-10.1] (Eterna round: R97, puzzle: Brourd's mod of Exclusion 4) | 73.6 | 35.7 | – | – | – | – |
| AUUUUGUGAGGAUAUUAGUAGUAAAUGAAUAAAAUUAUUACUGAGAAGGCACAUGAGGAUCACCCAUGUUCCUA [Mat - Exclusion 4 - Eli Mod - D7] (Eterna round: R97, puzzle: Exclusion 4) | 175 | 19.2 | – | – | – | – |
| AAUUAACAUGUAGGAUAUCUGCACGAUUAGUGCAGAGAAGGACAUGAGGAUCACCCAUGUAUAGCGACUUCGGUCGCAAUAAUU [ENG1/2-B1] (Eterna round: R96, puzzle: Exclusion NG 1) | 161 | 80.6 | – | – | – | 69.5 |
| AGAAAUGCCCAUGGCCACAAGCUUCUUGCUUGUCUUACUACAUGAGGAUCACCCAUGUAACAUGGGCUCCUGAUAAU [Maonesra] (puzzle: Sensor v3, turn-off variant 2) | – | – | 10.1 | 11.8 | 11.1 | – |
| GCACUCUUGUGAGGAUAUCGUUAAGGGACUUAACGAGAAGGUACAUGAGGAUCACCCAUGUGGAUCCUCCCGUUUGGAUCACUU [Eternabot solution 3] (Eterna round: R96, puzzle: Exclusion NG 1) | 177 | 112 | – | – | – | 103 |
| AUUAUGUAAGGAUAUCUUACAUGUGACUUCGGUCACUGUUAAGAGAAGGUACAUGAGGAUCACCCAUGUAGAAC [Ex4-3: 47] (puzzle: Exclusion 4) | – | – | 18.1 | – | – | – |
| GAGGAACAUGAGGAUCACCCAUGUAAGGAUAUGCAAAGAGAGAAAGAAGAAGGAGAAAGCAGAAGGUACAAGGA [JR_Exclu1_Sub073] (puzzle: Exclusion 1) | – | – | 35.1 | 42.7 | 54.2 | – |
| CGUACUGAAGUGAGGAUAUUGUCUCGGAUACGAAACAAGAAGGCACAUGAGGAUCACCCAUGUUAACAGUACGA [Malc #30 mod 9] (puzzle: Brourd's mod of Exclusion 4) | – | – | 19.2 | 15.2 | 14.5 | – |
| UUUAAUUUUUUUUUUUUACAAGCUUUUUGCUCGUCUUAUACAUGAGGAUCACCCAUGUGGGUGAAAAGUAAAUUAUC [JMF 44] (puzzle: Sensor v3, turn-off variant 2) | – | – | 18.7 | 22.4 | 33.1 | – |
| AAUAAGCGAGGAUAUACACCCGGAAAACGGGAACGGGCGAGACAUGAGGAUCACCCAUGUAGAAGGCGCGUCAA [Sogexe] (Eterna round: R97, puzzle: Exclusion 2) | 28 | 77.9 | – | – | – | – |

| Sequence | apparent KD of MS2 coat protein (input ligand: FMN 200 uM) [nM] | apparent KD of MS2 coat protein (input ligand: none) [nM] | apparent KD of MS2 coat protein [1] [nM] | apparent KD of MS2 coat protein [2] [nM] | apparent KD of MS2 coat protein [3] [nM] | apparent KD of MS2 coat protein [4] [nM] |
| --- | --- | --- | --- | --- | --- | --- |
| AGCUAGAUAGGAUAUGCCCGGGAUAACAUGAGGAUCACCCAUGUGACCGAAUCAUGUCCAGCAGAAGGGUUUGGGA [Mod of ViennaUCT 9 - Jieux - Exclusion 5] (Eterna round: R97, puzzle: Exclusion 5) | 34.7 | 23.3 | – | – | – | – |
| UUAUUAUAUGUAGGAUAUGCAUAUUAUUAUUAUGCAGAAGGACAUGAGGAUCACCCAUGUAUAUUAUUAUUAUAUAUUGUAUAU [Title] (Eterna round: R96, puzzle: Exclusion NG 1) | – | – | – | – | – | 23.2 |
| GAAAAGGUAGGAUAUACGAAAAUAAAGGGUAGAAAUAAAACACAUGAGGAUCACCCAUGUAGAAGGACCAAAAG [salish99_ex2_r3_096] (puzzle: Exclusion 2) | – | – | 23.3 | 70.6 | 23.2 | – |
| UACAUGAGGAUCACCCAUGUUUUGUCGUGUAUGGUACCCGUCUAGGAUAUCGUGUUAUUGGACCACGAGAAGGAGAGUAUCAAU [Excl-NG3-LRO02] (Eterna round: R96, puzzle: Exclusion NG 3) | 42.6 | 31.7 | – | – | – | 20.3 |
| ACUAGGCGAGGAUAUACAUGCUUAACACAGCGAAAGCUGUGACAUGAGGAUCACCCAUGUAGAAGGCGCAAAUA [Enlaedondi] (puzzle: Exclusion 2) | – | – | 43.2 | – | – | – |
| CAGUACAGAGGAUAUACAUGAGGAUCACCCAUGUGUAGCAGCUAGGAGACUAGCGCAUGUAGAAGGCUGUACUG [jl-ex3-4.31 salish99 mod] (Eterna round: R97, puzzle: Exclusion 3) | 129 | 21.3 | – | – | – | – |
| CUAGUCCGAGGAUAUAUUAAGUGAAACAUGAGGAUCACCCAUGUUAUUUGAUGGAUGAAAAUAGAAGGCGGACUAG [Mat - Exclusion 5 - JL mod - D60] (puzzle: Exclusion 5) | – | – | 46.9 | 27.8 | 58.5 | – |
| GAAAAGGUAGGAUAUACGAAAAAAAAGGGUAGAAAAAAAAAACAUGAGGAUCACCCAUGUAGAAGGACCAAAAG [salish99_ex2_r3_059] (Eterna round: R96, puzzle: Exclusion 2) | – | – | – | – | – | 34.7 |
| CAAUUCCGAGGAUAUACAUGAGGAUCACCCAUGUCGGGCCUCAGCGUUUAGCGCCUAAGUAGAAGGUGGGUUUC [JL Riri mod 4] (Eterna round: R96, puzzle: Exclusion 3) | 47.1 | 46.6 | – | – | – | 31.7 |
| AAUAACAAGUAGAUCCUAAACAUGAGGAUCACCCAUGUGCUCGUCUUGUAAAGUACUAUCACGAAAGUGAUAGUACA (Eterna round: R97, puzzle: Sensor, turn-off variant 1) | 84.5 | 85.2 | – | – | – | – |
| AUAAAUCAUGUAGGAUAUGCGUGGCAAAGCUAUGCAGAAGGACAUGAGGAUCACCCAUGUGCUUCCGUCUGGGAACAGACGGUA [Mat - Exclusion NG 1 - Mod of JL - D34] (Eterna round: R96, puzzle: Exclusion NG 1) | 243 | 84.9 | – | – | – | 67.7 |
| ACACUGCUAGGAUAUGCAGCGGCAUCAGCCGAAAGUCCCUCACAUGAGGAUCACCCAUGUAGAAGGAGCAAGAC [Eternabot (Original) Solution 13] (Eterna round: R97, puzzle: Exclusion 2) | 26.9 | 26.6 | – | – | – | – |
| CUUGACUGAGGAUAUUGUGCUGCUGACAUGAGGAUCACCCAUGUAUGUUAACUCGGCCGUCGAGAAGGCAGAAAGG [BotMod 19 - Jieux - Exclusion 5] (Eterna round: R97, puzzle: Exclusion 5) | 14.2 | 40.8 | – | – | – | – |
| AGCCAAGCAGGAUAUGCCCGGGAUAACAUGAGGAUCACCCAUGUGACCGAUUGAUGUCCUGCAGAAGGGCUUGGGA [Mod of ViennaUCT - Jieux - Exclusion 5] (Eterna round: R97, puzzle: Exclusion 5) | 83.2 | 17.9 | – | – | – | – |
| UACUAAAAGGAGGAUAUCGUAUCGGAGACGAUACGAGAAGGCUUAACAUGAGGAUCACCCAUGUUCUUCAAUAU [Mat - Exclusion 6 - Eli Mod - D96] (puzzle: Exclusion 6) | – | – | 14.8 | – | – | – |
| AGAGUACUGCGAGGAUAUACAUGAGGAUCACCCAUGUGGUGGUGUGAGGCUUUGCCUCACACCAUGUAGAAGGCGCAGUACUCA [Mat - Exclusion NG 2 - Mod of JL - D19] (Eterna round: R96, puzzle: Exclusion NG 2) | 257 | 35.3 | – | – | – | 26.8 |
| UAGGCACCUGCAGGAUAUUAGAGGCGCUUUCUGUAAGAAGGGCAGGUUCACAUGAGGAUCACCCAUGUAAAGAACAGCAUGGCA [Eternabot solution 24] (Eterna round: R96, puzzle: Exclusion NG 1) | 23.1 | 28.9 | – | – | – | 17.4 |
